Laboratory results: patent publication US20110287512

Key:
[1] = test system: ZFP7263 linker TPNRCPPTKP (artificial)
[2] = test system: ZFP7263 linker TPRPPIPKP (artificial)
[3] = test system: ZFP7263 linker LRQKDERP (artificial)
[4] = test system: ZFP7263 linker TGEGGKP (artificial)
[5] = test system: ZFP7263 linker TPLCQRPMKQKP (artificial)
[6] = test system: ZFP7263 linker TGGGGSQKP (artificial)
[7] = test system: ZFP7263 (host, center linker TGSQKP) (artificial); assay: ELONA
[8] = test system: ZFP7263 linker TYPRPLLAKP center linker F2-F3 TGSQKP replaced by TYPRPLLAKP (artificial); assay: ELONA; conditions: normalized ELISA score
[9] = test system: ZFP7263 linker TQRPQIPPKP center linker F2-F3 TGSQKP replaced by TQRPQIPPKP (artificial); assay: ELONA; conditions: normalized ELISA score
[10] = test system: ZFP7263 linker TGEGGKP center linker F2-F3 TGSQKP replaced by TGEGGKP (artificial); assay: ELONA; conditions: normalized ELISA score
[11] = test system: ZFP7263 linker TPRPPIPKP center linker F2-F3 TGSQKP replaced by TPRPPIPKP (artificial); assay: ELONA; conditions: normalized ELISA score
[12] = test system: ZFP7263 linker TPLCQRPMKQKP center linker F2-F3 TGSQKP replaced by TPLCQRPMKQKP (artificial); assay: ELONA; conditions: normalized ELISA score
[13] = test system: ZFP7263 linker LRQKDERP center linker F2-F3 TGSQKP replaced by LRQKDERP (artificial); assay: ELONA; conditions: normalized ELISA score
[14] = test system: ZFP7263 linker TPNRCPPTKP center linker F2-F3 TGSQKP replaced by TPNRCPPTKP (artificial); assay: ELONA; conditions: normalized ELISA score
[15] = test system: ZFP7263 linker TGGGGSQKP center linker F2-F3 TGSQKP replaced by TGGGGSQKP (artificial); assay: ELONA; conditions: normalized ELISA score
[16] = test system: ZFN7263 linker TPRPPIPKP center linker F2-F3 TGSQKP replaced by TPRPPIPKP (artificial); assay: cell_activity; conditions: normalized yeast MEL-1 score
[17] = test system: ZFN7263 linker TGGGGSQKP center linker F2-F3 TGSQKP replaced by TGGGGSQKP (artificial); assay: cell_activity; conditions: normalized yeast MEL-1 score
[18] = test system: ZFN7263 linker TPNRCPPTKP (artificial); assay: cell_activity; conditions: yeast, paired with 7264 ZFN
[19] = test system: ZFN7263 linker TPLCQRPMKQKP (artificial); assay: cell_activity; conditions: yeast, paired with 7264 ZFN
[20] = test system: ZFN7263 (host) (artificial); assay: cell_activity
[21] = test system: ZFN7263 linker TYPRPLLAKP (artificial); assay: cell_activity; conditions: yeast, paired with 7264 ZFN
[22] = test system: ZFN7263 linker TQRPQIPPKP (artificial); assay: cell_activity; conditions: yeast, paired with 7264 ZFN
[23] = test system: ZFP8196 linker TGGGGSQKP (artificial)
[24] = test system: ZFP8196 linker TPDAPKPKP (artificial)
[25] = test system: ZFP8196 linker TGEGGKP (artificial)
[26] = test system: ZFP8196 linker TPSHTPRPKP (artificial)
[27] = test system: ZFP8196 linker TEPRAKPPKP (artificial)
[28] = test system: ZFP8196 linker TPDRPISTCKP (artificial)
[29] = test system: ZFP8196 linker TSPRLPAPKP (artificial)
[30] = test system: ZFP8196 linker LRQKDERP (artificial)
[31] = test system: ZFP8196 linker TCPRPPTRKP (artificial)
[32] = test system: ZFP8196 linker TVSPAPCRSKP (artificial)
[33] = test system: ZFP8196 linker TSSPRSNAKP (artificial)
[34] = test system: ZFP8196 linker TGYSIPRPKP (artificial)
[35] = test system: ZFP8196 linker TPGLHRPKP (artificial)
[36] = test system: ZFP8196 linker 1d center linker F2-F3 TGEKP replaced by TPNRRPAPKP (artificial); assay: ELONA; conditions: normalized ELISA score
[37] = test system: ZFP8196 linker 1f center linker F2-F3 TGEKP replaced by TYPRPIAAKP (artificial); assay: ELONA; conditions: normalized ELISA score
[38] = test system: ZFP8196 linker 1c center linker F2-F3 TGEKP replaced by THPRAPIPKP (artificial); assay: ELONA; conditions: normalized ELISA score
[39] = test system: ZFP8196 (host, center linker TGEKP) (artificial); assay: ELONA; conditions: normalized ELISA score
[40] = test system: ZFP7264 (host, center linker TGSQKP) (artificial); assay: ELONA; conditions: normalized ELISA score
[41] = test system: ZFP7264 linker 1e center linker F2-F3 TGSQKP replaced by TVPRPTPPKP (artificial); assay: ELONA; conditions: normalized ELISA score
[42] = test system: ZFP7264 linker TGEGGKP (artificial)
[43] = test system: ZFP7264 linker LRQKDERP (artificial)
[44] = test system: ZFP7264 linker TLPLPRPKP (artificial)
[45] = test system: ZFP7264 linker TGGGGSQKP (artificial)
[46] = test system: ZFP7264 linker TKHGTPKHREDKP (artificial)
[47] = test system: ZFP7264 linker TLPPCFRPKP (artificial)
[48] = test system: ZFP7264 linker TSRPRPKP (artificial)
[49] = test system: ZFP7264 linker TGLPKPKP (artificial)

Sequence: TTAGCCACTCTGACTGGAAGTGTATC (double strand) [7263 target gap AC]
- binding signal (normalized ELISA) [1]: 0.03
- binding signal (normalized ELISA) [2]: 0.02
- binding signal (normalized ELISA) [3]: 0.01
- binding signal (normalized ELISA) [4]: 0.01
- binding signal (normalized ELISA) [5]: 0.08
- binding signal (normalized ELISA) [6]: 0.01
- binding signal ([7]; normalized ELISA score): 0.01
- binding signal [8]: 0.03
- binding signal [9]: 0.03

Sequence: TTAGCCACTCTGTGGAAGTGTATC (double strand) [7263 target 0-bp gap]
- binding signal [10]: 1.3
- binding signal ([7]; ELISA normalized to host on 0-bp gap target (reference)): 1
- binding signal [11]: 0.14
- binding signal [12]: 0.28
- binding signal [8]: 0.29
- binding signal [13]: 0.25
- binding signal [9]: 0.15
- binding signal [14]: 0.31
- binding signal [15]: 0.51

Sequence: ACTCTGTGGAAG (double strand) [7263 yeast half-site 0-bp gap]
- activity [16]: 0.04
- activity [17]: 0.11
- activity (normalized MEL-1) [18]: 0.05
- activity (normalized MEL-1) [19]: 0.04
- activity ([20]; yeast MEL-1 score, with invariant 7264 ZFN partner (reference)): 1
- activity (normalized MEL-1) [21]: 0.05
- activity (normalized MEL-1) [22]: 0.04

Sequence: TTAGCCACTCTGTTGGAAGTGTATC (double strand) [7263 target gap T]
- binding signal [10]: 0.04
- binding signal ([7]; normalized ELISA score): 0.02
- binding signal [11]: 2.09
- binding signal [12]: 4
- binding signal [8]: 3.97
- binding signal [13]: 0.13
- binding signal [9]: 3.05
- binding signal [14]: 3.16
- binding signal [15]: 0.39

Sequence: ACTCTGTTGGAAG (double strand) [7263 yeast half-site gap T]
- activity [16]: 1.4
- activity [17]: 0.31
- activity (normalized MEL-1) [18]: 1.59
- activity (normalized MEL-1) [19]: 1.19
- activity ([20]; normalized yeast MEL-1 score): 0.06
- activity (normalized MEL-1) [21]: 1.06
- activity (normalized MEL-1) [22]: 1.19

Sequence: TTAGATAAACTGTCCAAAAGGCTATC (double strand) [8196 target gap TC]
- binding signal (normalized ELISA) [23]: 0
- binding signal (normalized ELISA) [24]: 0.01
- binding signal (normalized ELISA) [25]: 0
- binding signal (normalized ELISA) [26]: 0.02
- binding signal (normalized ELISA) [27]: 0.02
- binding signal (normalized ELISA) [28]: 0.03
- binding signal (normalized ELISA) [29]: 0.01
- binding signal (normalized ELISA) [30]: 0
- binding signal (normalized ELISA) [31]: 0.01
- binding signal (normalized ELISA) [32]: 0.02
- binding signal (normalized ELISA) [33]: 0.01
- binding signal (normalized ELISA) [34]: 0.01
- binding signal (normalized ELISA) [35]: 0.01
- binding signal [36]: 0.01
- binding signal [37]: 0.01
- binding signal [38]: 0.01
- binding signal [39]: 0

Sequence: TTAGTTAAAGCGTTGCTCCGAATATC (double strand) [7264 target gap TT]
- binding signal [40]: 0
- binding signal [41]: 0.05
- binding signal (normalized ELISA) [42]: 0.03
- binding signal (normalized ELISA) [43]: 0.02
- binding signal (normalized ELISA) [44]: 0.04
- binding signal (normalized ELISA) [45]: 0.03
- binding signal (normalized ELISA) [46]: 0
- binding signal (normalized ELISA) [47]: 0.06
- binding signal (normalized ELISA) [48]: 0.03
- binding signal (normalized ELISA) [49]: 0.03
